Test: yeast display, Sf9 membrane polyspecificity reagent, FACS + sequencing; frameworks hold sequencing errors
How it was run: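 In a synthetic yeast display library (Saccharomyces cerevisiae BJ5465), nanobody expression was induced with galactose for 36–48 hours. FACS gates were set low and high (top ~1%) using anti-HA fluorescence for expression and streptavidin fluorescence for binding of the Sf9 membrane reagent. Each polyreactivity label is drawn from the gate of origin.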

Row | Sequence | polyreactivity (PSR sort gate)
1 | QVQLVESGGGLVQAGGSLRLSCAASGYTFGYYTMGWYRQAPRKERELVASIDSGGGTNYADSVKGRFTISRDNAKNTVYLQMNSLKPEDTAVYYCAAESPLYWVDDFESGWRYYYWGQGTQVTVSS | low polyreactivity
2 | QVQLVESGGGLVQAGGSLRLSCAASGYTFHGNAMGWYRQAPGKERELVAAISRNGGRTYYADSVKGRFTISRDNAKNTVYLQMHSLKPEDTAVYYCNASKFYGVRFKYDYWGQGTQVTVSS | high polyreactivity
3 | QVQLVESGGGLVQAGGSLRLSCAASGYTFIDNAMGWYRQAPGRERELVAAISDSAGDTYYADSVKGRFTISRDNAKNTVYLQMNSLKPEDTSVYYCAARGYLRGEQLYVFIRYDYWGHGTQVTVSS | low polyreactivity
4 | QVQLVESGGGLVQAGGSLRLSCAASGYTFIDYAMGWYRQAPGKETELVAAITRGGRTNYADSVKGRFTISRDNAKNTVYLQMNSLKPEDTAVYYCAAALRRRRADFDYWGQGTQVTVSS | high polyreactivity
5 | QVQLVESGGGLVQAGGSLRLSCAASGYTFIINAMGWYRQAPGKERELVASISGGGTYYADSVKGRFTISRDNAKNTVYLEMNSLKREDTAVYYCNATRRRKYYKYGGDYWGQGTQVTVSS | high polyreactivity
6 | QVQLVESGGGLVQAGGSLRLSCAASGYTFIVNAMGWYRQAPGKERELVAGISYRGGRTFYADSVKGRFTISRDNAKNTVYLQMTSLKPEDTAVYYCAARKTGIPFYNYDYWGQGTQVTVSS | low polyreactivity
7 | QVQLVESGGGLVQAGGSLRLSCAASGYTFLISAMGWYRQAPGKERELVAVISSGGSTSYADSVKGRFTISRDNAKNTVYLQMNSLKPEDSAVYYCAAALAGGRRGGDYWGQGTQVTVSS | low polyreactivity
8 | QVQLVESGGGLVQAGGSLRLSCAASGYTFLPNAMGWYRQAPGKESEFVAAISYSGGRTYYADSVKGRFTISRDNAKNTVYLLMNSLKPEDTAVYYCARDRRYWAVLSDYWGQGTQVTVSS | low polyreactivity
9 | QVQLVESGGGLVQAGGSLRLSCAASGYTFLYYAMGWYRQAPGKEREFVAAISRSGGSTYYADSVKGRFTISRDNAKNTVYLQMNSLKPEDTAVYYCAARFRYQHQRGDYWGQGTQVTVSS | high polyreactivity
10 | QVQLVESGGGLVQAGGSLRLSCAASGYTFNRNAMGWYRQAPGKERELVASITRRGGYTYYADSVKGRFTISRDNAKNTDYLQMISLKPEDTAVYYCAVESIRTGDYWGQGTQVTVSS | high polyreactivity
11 | QVQLVESGGGLVQAGGSLRLSCAASGYTFPKYAMGWYRQAPGKERELVAAITKRGGRTYSADSVKGRFTISRDNAKNTVYLQMNSLKPEDTAVYYCAVDLDGPEYSQVHYDYWGQGTQVTVSS | high polyreactivity
12 | QVQLVESGGGLVQAGGSLRLSCAASGYTFPLYAMGWYRQAPGTERELVADINIGGASTYYADSVKGRFTISRDNAKNTVYLQMNSLKPEDTAVYYCAADYTVRVVATYDYWGQGTQVTVSS | low polyreactivity
13 | QVQLVESGGGLVQAGGSLRLSCAASGYTFPRYTMGRYRQAPGKERELVAVIRRSGGTHYADSVKGRFTISRDNAKNTVYLLMYSLNPVDIAVYYCAVVSLLQNIPYGFWGQGTQVTVSS | high polyreactivity
14 | QVQLVESGGGLVQAGGSLRLSCAASGYTFPSYAMGWYRQAPGKERELVAVITIGGTYYADSVKGRFTISRDNAKNTVYLQMNSLKPEDTAVYYCAADWAWDYYRGFDYWGQGTQVTVSS | low polyreactivity
15 | QVQLVESGGGLVQAGGSLRLSCAASGYTFRAYVMGRYRQAPGKEREMVAGITRRGGTTYYADSVKGRFTISRDYAKNTVYLQMNSLKPEDTAVYYCTAVFRSGSIPYVSWGQGTQVTVSS | high polyreactivity
16 | QVQLVESGGGLVQAGGSLRLSCAASGYTFRFNAMGWYRQAPGKEREFVAAIDFGGAGTYYADSVKGRFTISRDNAKNTVYLQMNSLKPEDTAVYYCNARDGVTTEFDYWGQGTQVTVSS | low polyreactivity
17 | QVQLVESGGGLVQAGGSLRLSCAASGYTFRPYAMGSYIQAPGKERELVAAISSTGGRTYYADSVKGRFTISRDIAKNTVYVQMNSLKPEYTAVYYCAVLKVYRSSFDYCGQGTQVTVSS | high polyreactivity
18 | QVQLVESGGGLVQAGGSLRLSCAASGYTFRYNALGWYRQAPGKERELVAAISSSGRTYYADSVKGRFTSSRDNAKNTVDLQMNSLKPDATAVYYCNAGPYAGARYRWGYDYWGQGTQVTVSS | high polyreactivity
19 | QVQLVESGGGLVQAGGSLRLSCAASGYTFRYNAMGWYRQAPGKERELVATISRGGNTNYADSVKGRFTISRDNAKNPVYLQMISLKAEDTAVYYCAKVWRTFPYYSWGQGTQVTVSS | high polyreactivity
20 | QVQLVESGGGLVQAGGSLRLSCAASGYTFRYYAMGWYRQAPVKERELVARITGRAGSTYYADSVKGRFTISRDNAKNTVYLQMNSLKPEDTAVYYCAASIREGFYWGQGTQVTVSS | high polyreactivity
21 | QVQLVESGGGLVQAGGSLRLSCAASGYTFRYYVMGWYRQAPGKERELVAAISFSGGSTYYADSVKGRFTISRDTAKNSGYLQMKSLKPEDTAVYYCAARPGGGKYRGYYYWGQGTQVTVSS | high polyreactivity
22 | QVQLVESGGGLVQAGGSLRLSCAASGYTFSDYAMGWYRQAPGKERELVAAISWSGGSTYYADSVKGRFTISRDNAKNTVFLQMNSLKPEDTAVYYCAAKWYAPDLLYYYWGQGTQVTVSS | low polyreactivity

Row | Sequence | polyreactivity (PSR sort gate)
23 | QVQLVESGGGLVQAGGSLRLSCAASGYTFSHYAMGWYRQAPGKERELVAGITWSGGSTYYADSVKGRFTISRDYAKNTVYLQMNSLKPEDTSVYYCAAKYYWYYSYSGIPLFDYWGQGTQVTVSS | low polyreactivity
24 | QVQLVESGGGLVQAGGSLRLSCAASGYTFSLYAMGWYRQAPGKERELVAAISSGDRTFYADSVKGRFTISRDNAKNTVYLQMNSLKPEDTAVYYCAARRYYVASIYRYDSWGQGTQVTVSS | high polyreactivity
25 | QVQLVESGGGLVQAGGSLRLSCAASGYTFSPNDMGWYRKAPGKERELVAAITSSVGSTYYADSVKGRFTISRDNAKNTVYLQMNSLKPEDTAVYYCARTYQVGDSIDDYWGQGTQVTVSS | low polyreactivity
26 | QVQLVESGGGLVQAGGSLRLSCAASGYTFSQNAMGWYRQAPGKERELVAAITWSGAGTYYADSVKGRFTISRDNAKNTVYLQMNSLKPEDTAVYYCAAREWTSQDRQHNYWGQGTQVTVSS | low polyreactivity
27 | QVQLVESGGGLVQAGGSLRLSCAASGYTFSSNAMGWYRQATGKVSELVATNSSGGSTYYADSVKGRFTISRDNAKNTVYLQMYSLKPEDTAVYYCAADDLGWWFYSGGEDYYYWGQGTQVTVSS | low polyreactivity
28 | QVQLVESGGGLVQAGGSLRLSCAASGYTFSSYTMGWYRQAPRKERELVAAITYSGGSTYYADSVKGRFTISRDNAKNTVYLQMNSLKPEDTAVYYCNARGRYAYAYWGQGTQVTVSS | low polyreactivity
29 | QVQLVESGGGLVQAGGSLRLSCAASGYTFSVNALGWYRQAPGKERELVATINSSGGGTYYADSVKGRFTISRDNAKYTVYLQMNSLKPEDTAVFYCAADGYWYGDIYPSDYRWYDYWGQGTQVTVSS | low polyreactivity
30 | QVQLVESGGGLVQAGGSLRLSCAASGYTFSYYAMGWYRQAPGKERELVARITYSGGSTYYADSVKGRFTISRDNAKNTVYLQMNSLKPEDTAVYFCAARLRYPYWYYNWGQGTQVTVSS | high polyreactivity
31 | QVQLVESGGGLVQAGGSLRLSCAASGYTFTGYAMGWYRQAPGKERELVAAITSIGGSTYYADSVKGRFTISRDNAKTTVYLQMNSLKPEDTAVYYCAKDALVIDGGGGYDYWGQGTQVTVSS | low polyreactivity
32 | QVQLVESGGGLVQAGGSLRLSCAASGYTFTIYAMGWYRQAPGKQRELVAAITGRGGRTNYADSVKGRFTISRDNAKNTVYLQMNSLKPEDTAVYYCNAVTKVVYHGPYGYDYWGQGTQVTVSS | high polyreactivity
33 | QVQLVESGGGLVQAGGSLRLSCAASGYTFTSNDMGWYRQAPGKERELFAAITRVGSTNYADSVKGRFTISRDNAKNTVYLQMNSLKPEDTAVYYCAADLWQRHYLVGFGIRYDYWGQGTQVTVSS | low polyreactivity
34 | QVQLVESGGGLVQAGGSLRLSCAASGYTFTVYAMGWYRQAPGKERELVAAITWNGASTYYADSVKARFTISRDNAKKTVYLQMNSLKPEDTAVYNCADPNYFYRDRSRLDYWGQGTQVTVSS | low polyreactivity
35 | QVQLVESGGGLVQAGGSLRLSCAASGYTFVLYAMGWYRQAPGKERELVAAIRWSGGTTYYADSVKGRFTISRDNAKNTVYCQMNSLKPEDTAVYYCAGWDYTGNVVTGDYWGQCTQVTVSS | high polyreactivity
36 | QVQLVESGGGLVQAGGSLRLSCAASGYTFVNYAMGWYRQAPGKERELVAAITSRGSSTYYADSVKGRFTISRDNAKNTVYLQMKSLKPEDTAVYYCFVHVRNHDYWGQGTQVTVSS | high polyreactivity
37 | QVQLVESGGGLVQAGGSLRLSCAASGYTFVTNAMGWYRQAPGKERELVAAITTVGSTNYADSVKGRFTISRDNAKNTVYLQMNSLKPEDTAVYYCNANWYEWYDWGQGTQVTVSS | low polyreactivity
38 | QVQLVESGGGLVQAGGSLRLSCAASGYTFYGYAMGWYRQAPGKERELVAAISGSGGSTYYADSVKGRFTISRDNAKNTVYLQMNSLKPEDTAFYYCNKARYAIYRGDGYDYWGQGTQVTVSS | high polyreactivity
39 | QVQLVESGGGLVQAGGSLRLSCAASGYTFYIYAMGWYRQAPGKERELVATISSSGGGTYYADSVKGRFTISRDNAKNTVYLQMNSLNPEDTAVYYCNADGWYWQAQGYDYWGQGTQVTVSS | low polyreactivity
40 | QVQLVESGGGLVQAGGSLRLSCAASGYTFYQNAMGWYRQAPGKERELVAAITFRTGSTYYADSVKGRFTISRDNAKNTVYLQMNSLKPEDTAVYYCAATRFLRDWWYGYWGQGTQVTVSS | low polyreactivity
41 | QVQLVESGGGLVQAGGSLRLSCAASGYTFYSNAMGSYRQAPGKERELVASIRSRGRSTYYADSVKGRFTISRDNAKNTVYFQMNSLKPEDTAVYYCAALPNTPAVYAYDYWGQGTQVTVSS | low polyreactivity
42 | QVQLVESGGGLVQAGGSLRLSCAASGYTFYSYALGWYRQAPGKERELVAAITSGGRTNYADSVKGRFTISRDNAKNTVYLQMNSLKPEDTAVYYCAAYVFRAYGRYYYWGQGTQVTVSS | high polyreactivity
43 | QVQLVESGGGLVQAGGSLRLSCAASGYTFYTNAMGWYIQAPGKERELVASIRSRGRSTYYADSVKGRFTISRDNAKNTVYLQMNSLKPEDTAVFYCAALPNIPAVYAYDYWGQGTQVTVSS | low polyreactivity

From the nanobody polyreactivity screen of Harvey et al. (2022)
